Laboratory results from patent US20250002577A1 (ONCORESPONSE, published 2025).

How the values were obtained:
human LILRB1 on cells [1] = target: T1, human LILRB1 on cells (human, UniProt Q8NHL6 24-650); experiment: flow cytometry, 721.221 cells, AF647-labelled antibody
T1 construct: whole, on cells; also called hLILRB1; LILRB1-expressing 721.221 cells
Experimental: While LILRB2 expression is mostly restricted to myeloid cells, LILRB1 has a broader expression on immune cell subsets, including B cells, T cells and NK cells.
Frozen cells were removed from storage in vapor phase liquid nitrogen and thawed by gentle swirling in a water bath at 37° C., then resuspended in DMEM media with 10% FBS. Cells were placed in a 15 mL conical tube and centrifuged at 300×g for 5 min, then supernatant was removed. Cells were resuspended in DMEM+10% FBS at a cell density of 2×10⁵ cells/mL in a T75 flask for culturing, and incubated at 37° C., 5% CO₂ for 3 days before passaging. Cells were passaged when the cell density reached 1×10⁶ cell/mL. On the day of the assay, cells were centrifuged, then supernatant was removed. Cells were resuspended in Blocking Buffer B (FACS Buffer containing 10% FBS and 0.5 mg/mL human IgG1 (Athens Research, No. 16-16-090707-1M)+0.05% NaN₃, 5% (w/v)) in a 15 mL conical tube, then incubated at 4° C. for 30 min. […] Cells were incubated with antibodies at 4° C. for 1 h. Cells were washed twice in FACS Buffer (PBS containing 2 mM EDTA+1% FBS+0.05% NaN₃) and then stained with for 10 min with Zombie Violet™ fixable viability dye (BioLegend, No. 423114) at RT, washed with FACS Buffer and resuspend in 75 μL of FACS Buffer for acquisition on a BD FACSymphony™ or BD FACSCanto™ II flow cytometer (BD Biosciences), as described in Example 6.

[2] = target: T2, recombinant cynomolgus LILRB1 (cynomolgus); experiment: MSD ELISA, coated antigen, purified IgG1
T2 construct: Bought protein

[3] = target: T3, recombinant human LILRB1-His (human, UniProt Q8NHL6 24-458); experiment: MSD ELISA, coated antigen, purified IgG1
T3 construct: Bought protein; also called LILRB1 protein

[4] = target: T4, recombinant human LILRB2-His (human, UniProt Q8N423 22-461, limits assumed); experiment: MSD ELISA, coated antigen, purified IgG1
T4 construct: Bought protein; also called LILRB2 protein

[5] = target: T5, human LILRB4 on HEK293-6E cells (human, UniProt Q8NHJ6 22-448); experiment: flow cytometry, HEK293-6E transfectants
T5 construct: whole, on cells; also called hLILRB4
Method in brief: (§1)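 Antibody binding measured by flow cytometry on HEK293-6E cells transiently transfected with individual human LILRB (1–5) or LILRA (1, 2, 4, 5, 6) plasmids. Antibodies tested at 1 μg/mL.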

[6] = target: T6, human LILRA2 on HEK293-6E cells (human, UniProt Q8N149 24-483); experiment: flow cytometry, HEK293-6E transfectants
T6 construct: whole, on cells; also called hLILRA2
Method in brief: as §1

[7] = target: T7, human LILRA1 on HEK293-6E cells (human, UniProt O75019 17-489); experiment: flow cytometry, HEK293-6E transfectants
T7 construct: whole, on cells; also called hLILRA1
Method in brief: as §1

[8] = target: T8, human LILRA5 on HEK293-6E cells (human, UniProt A6NI73 42-299); experiment: flow cytometry, HEK293-6E transfectants
T8 construct: whole, on cells; also called hLILRA5
Method in brief: as §1

[9] = target: T9, human LILRB5 on HEK293-6E cells (human, UniProt O75023 24-590); experiment: flow cytometry, HEK293-6E transfectants
T9 construct: whole, on cells; also called hLILRB5
Method in brief: as §1

[10] = target: T10, human LILRB3 on HEK293-6E cells (human, UniProt O75022 24-631); experiment: flow cytometry, HEK293-6E transfectants
T10 construct: whole, on cells; also called hLILRB3
Method in brief: as §1

human LILRB1 on cells [11] = target: T1, human LILRB1 on cells; experiment: flow cytometry, HEK293-6E transfectants
Method in brief: as §1

human LILRB2 on cells [12] = target: T11, human LILRB2 on cells (human, UniProt Q8N423 22-597); experiment: flow cytometry, HEK293-6E transfectants
T11 construct: whole, on cells; also called hLILRB2; LILRB2-HEK293T
Method in brief: as §1

[13] = target: T12, human LILRA4 on HEK293-6E cells (human, UniProt P59901 24-499); experiment: flow cytometry, HEK293-6E transfectants
T12 construct: whole, on cells; also called hLILRA4
Method in brief: as §1

[14] = target: T13, human LILRA6 on HEK293-6E cells (human, UniProt Q6PI73 24-481); experiment: flow cytometry, HEK293-6E transfectants
T13 construct: whole, on cells; also called hLILRA6
Method in brief: as §1

human LILRB2 on cells [15] = target: T11, human LILRB2 on cells; experiment: flow cytometry, LILRB2-HEK293T cells, AF647-labelled antibody
Method in brief: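 Cells were blocked 30 min at 4° C in FACS buffer with 10% FBS and 0.5 mg/mL human IgG1. AF647-labelled antibodies were then bound for 1 h at 4° C. After Zombie Violet viability staining, binding was read by flow cytometry.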

T13 sequence (Q6PI73 24-481): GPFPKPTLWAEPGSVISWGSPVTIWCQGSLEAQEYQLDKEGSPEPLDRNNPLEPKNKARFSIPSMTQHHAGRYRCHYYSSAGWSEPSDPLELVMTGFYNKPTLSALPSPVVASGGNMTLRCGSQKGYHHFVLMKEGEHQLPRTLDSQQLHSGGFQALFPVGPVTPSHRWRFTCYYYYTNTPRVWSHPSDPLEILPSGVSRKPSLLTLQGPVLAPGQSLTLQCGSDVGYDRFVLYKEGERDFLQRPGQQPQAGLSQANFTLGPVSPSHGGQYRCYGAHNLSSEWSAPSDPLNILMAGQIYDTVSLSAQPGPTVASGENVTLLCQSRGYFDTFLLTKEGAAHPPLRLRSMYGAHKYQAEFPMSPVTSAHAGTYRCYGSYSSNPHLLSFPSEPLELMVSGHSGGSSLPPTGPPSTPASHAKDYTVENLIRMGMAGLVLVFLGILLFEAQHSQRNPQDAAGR
T7 sequence (O75019 17-489): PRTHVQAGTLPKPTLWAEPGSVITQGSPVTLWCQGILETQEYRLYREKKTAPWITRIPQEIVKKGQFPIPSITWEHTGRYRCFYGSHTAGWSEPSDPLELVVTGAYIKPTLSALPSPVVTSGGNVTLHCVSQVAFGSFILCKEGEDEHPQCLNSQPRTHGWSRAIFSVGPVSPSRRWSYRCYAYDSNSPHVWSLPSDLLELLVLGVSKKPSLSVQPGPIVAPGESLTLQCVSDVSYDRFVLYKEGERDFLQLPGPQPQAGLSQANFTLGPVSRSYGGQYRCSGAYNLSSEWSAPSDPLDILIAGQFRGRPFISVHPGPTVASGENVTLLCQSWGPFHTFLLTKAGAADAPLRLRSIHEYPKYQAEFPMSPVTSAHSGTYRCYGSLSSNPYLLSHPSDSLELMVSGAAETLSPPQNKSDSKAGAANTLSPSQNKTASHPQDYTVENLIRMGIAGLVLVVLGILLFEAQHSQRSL
T9 sequence (O75023 24-590): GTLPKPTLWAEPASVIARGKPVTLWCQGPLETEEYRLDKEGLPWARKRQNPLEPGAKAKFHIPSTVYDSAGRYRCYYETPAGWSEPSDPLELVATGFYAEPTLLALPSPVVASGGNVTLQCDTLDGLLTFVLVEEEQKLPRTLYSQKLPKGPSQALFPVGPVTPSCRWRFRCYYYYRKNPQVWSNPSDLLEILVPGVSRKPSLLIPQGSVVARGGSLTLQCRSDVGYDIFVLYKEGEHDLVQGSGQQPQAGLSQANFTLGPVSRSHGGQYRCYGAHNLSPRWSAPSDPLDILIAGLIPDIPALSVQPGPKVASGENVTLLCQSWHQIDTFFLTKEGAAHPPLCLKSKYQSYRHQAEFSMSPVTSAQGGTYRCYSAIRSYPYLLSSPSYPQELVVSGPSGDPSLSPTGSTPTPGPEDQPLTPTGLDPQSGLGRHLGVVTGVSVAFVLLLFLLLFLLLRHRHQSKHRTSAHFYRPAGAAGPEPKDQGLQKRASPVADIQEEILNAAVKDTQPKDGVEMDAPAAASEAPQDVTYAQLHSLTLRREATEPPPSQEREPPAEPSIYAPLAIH
T6 sequence (Q8N149 24-483): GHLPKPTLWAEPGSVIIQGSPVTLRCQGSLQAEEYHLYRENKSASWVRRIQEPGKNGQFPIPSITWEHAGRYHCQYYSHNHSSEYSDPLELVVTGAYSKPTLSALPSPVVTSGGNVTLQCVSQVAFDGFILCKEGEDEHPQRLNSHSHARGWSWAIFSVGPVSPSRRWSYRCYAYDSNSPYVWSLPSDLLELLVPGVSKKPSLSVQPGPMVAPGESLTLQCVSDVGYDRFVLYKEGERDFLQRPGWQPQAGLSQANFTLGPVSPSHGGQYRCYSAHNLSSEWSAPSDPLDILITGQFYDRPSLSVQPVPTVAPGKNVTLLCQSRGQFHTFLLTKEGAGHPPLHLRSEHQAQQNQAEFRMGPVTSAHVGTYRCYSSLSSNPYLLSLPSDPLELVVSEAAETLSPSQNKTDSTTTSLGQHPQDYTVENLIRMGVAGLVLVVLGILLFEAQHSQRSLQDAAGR
T1 sequence (Q8NHL6 24-650): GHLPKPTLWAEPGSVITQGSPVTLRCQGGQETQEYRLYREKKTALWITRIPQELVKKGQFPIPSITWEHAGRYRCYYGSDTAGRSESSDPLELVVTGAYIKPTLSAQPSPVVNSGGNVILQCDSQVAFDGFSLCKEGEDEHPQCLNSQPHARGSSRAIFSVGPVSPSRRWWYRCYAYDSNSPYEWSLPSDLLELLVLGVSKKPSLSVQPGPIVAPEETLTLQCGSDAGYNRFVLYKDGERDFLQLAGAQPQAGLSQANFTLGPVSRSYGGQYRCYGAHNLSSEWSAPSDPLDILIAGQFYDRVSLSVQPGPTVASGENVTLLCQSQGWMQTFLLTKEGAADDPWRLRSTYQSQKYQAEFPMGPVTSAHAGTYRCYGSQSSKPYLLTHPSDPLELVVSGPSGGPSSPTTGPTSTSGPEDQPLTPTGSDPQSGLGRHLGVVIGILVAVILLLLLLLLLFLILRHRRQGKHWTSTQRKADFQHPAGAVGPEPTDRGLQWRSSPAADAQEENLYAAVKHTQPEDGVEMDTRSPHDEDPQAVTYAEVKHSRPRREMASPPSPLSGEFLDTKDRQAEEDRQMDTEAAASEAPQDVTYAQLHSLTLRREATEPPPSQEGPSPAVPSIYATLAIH
T3 sequence (Q8NHL6 24-458 limits assumed): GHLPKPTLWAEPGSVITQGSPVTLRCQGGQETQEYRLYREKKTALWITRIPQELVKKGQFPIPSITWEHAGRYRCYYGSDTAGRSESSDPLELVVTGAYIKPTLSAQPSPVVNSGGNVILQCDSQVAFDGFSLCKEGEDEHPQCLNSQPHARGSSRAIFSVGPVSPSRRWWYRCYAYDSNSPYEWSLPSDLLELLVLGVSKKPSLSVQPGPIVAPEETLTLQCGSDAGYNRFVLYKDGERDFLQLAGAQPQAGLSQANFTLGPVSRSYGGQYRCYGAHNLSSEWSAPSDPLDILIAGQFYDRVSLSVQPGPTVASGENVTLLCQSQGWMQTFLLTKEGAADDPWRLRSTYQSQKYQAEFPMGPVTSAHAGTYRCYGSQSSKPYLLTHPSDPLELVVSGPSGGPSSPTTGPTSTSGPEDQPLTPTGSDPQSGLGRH
T11 sequence (Q8N423 22-597): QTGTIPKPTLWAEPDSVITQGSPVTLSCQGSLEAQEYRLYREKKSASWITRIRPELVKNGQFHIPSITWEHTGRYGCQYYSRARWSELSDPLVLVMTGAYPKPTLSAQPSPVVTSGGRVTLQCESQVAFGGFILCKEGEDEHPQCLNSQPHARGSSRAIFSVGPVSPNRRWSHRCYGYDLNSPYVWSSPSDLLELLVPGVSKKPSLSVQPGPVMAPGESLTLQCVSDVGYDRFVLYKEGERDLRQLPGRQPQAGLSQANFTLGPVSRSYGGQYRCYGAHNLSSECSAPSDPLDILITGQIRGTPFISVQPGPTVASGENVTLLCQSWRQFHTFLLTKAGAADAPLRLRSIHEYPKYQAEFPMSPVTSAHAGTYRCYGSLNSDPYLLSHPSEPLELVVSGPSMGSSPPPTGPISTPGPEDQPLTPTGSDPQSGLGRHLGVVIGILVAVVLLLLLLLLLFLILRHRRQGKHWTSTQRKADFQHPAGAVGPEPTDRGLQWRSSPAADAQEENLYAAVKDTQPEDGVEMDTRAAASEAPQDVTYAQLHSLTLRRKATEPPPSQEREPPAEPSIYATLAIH
T12 sequence (P59901 24-499): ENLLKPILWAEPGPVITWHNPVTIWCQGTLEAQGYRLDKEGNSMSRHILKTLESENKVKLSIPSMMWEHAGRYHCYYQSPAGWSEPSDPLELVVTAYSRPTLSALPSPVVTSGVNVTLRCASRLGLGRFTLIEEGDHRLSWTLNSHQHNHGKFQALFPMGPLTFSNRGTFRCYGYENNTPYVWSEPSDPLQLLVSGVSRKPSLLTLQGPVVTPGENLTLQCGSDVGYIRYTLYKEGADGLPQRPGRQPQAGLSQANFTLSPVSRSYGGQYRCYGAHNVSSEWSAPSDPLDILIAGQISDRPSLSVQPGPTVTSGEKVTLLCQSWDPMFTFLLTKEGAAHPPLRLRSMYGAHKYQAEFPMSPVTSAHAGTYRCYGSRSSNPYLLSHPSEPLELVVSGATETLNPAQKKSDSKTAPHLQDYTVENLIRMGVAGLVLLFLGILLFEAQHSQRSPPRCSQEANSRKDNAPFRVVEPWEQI
T8 sequence (A6NI73 42-299): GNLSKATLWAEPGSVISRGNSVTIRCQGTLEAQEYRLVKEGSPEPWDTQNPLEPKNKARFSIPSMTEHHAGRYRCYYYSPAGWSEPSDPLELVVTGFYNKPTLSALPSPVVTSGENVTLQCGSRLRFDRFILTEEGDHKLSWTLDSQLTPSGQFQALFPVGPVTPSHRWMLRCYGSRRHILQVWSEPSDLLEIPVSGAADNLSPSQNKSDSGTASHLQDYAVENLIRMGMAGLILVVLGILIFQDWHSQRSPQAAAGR
T10 sequence (O75022 24-631): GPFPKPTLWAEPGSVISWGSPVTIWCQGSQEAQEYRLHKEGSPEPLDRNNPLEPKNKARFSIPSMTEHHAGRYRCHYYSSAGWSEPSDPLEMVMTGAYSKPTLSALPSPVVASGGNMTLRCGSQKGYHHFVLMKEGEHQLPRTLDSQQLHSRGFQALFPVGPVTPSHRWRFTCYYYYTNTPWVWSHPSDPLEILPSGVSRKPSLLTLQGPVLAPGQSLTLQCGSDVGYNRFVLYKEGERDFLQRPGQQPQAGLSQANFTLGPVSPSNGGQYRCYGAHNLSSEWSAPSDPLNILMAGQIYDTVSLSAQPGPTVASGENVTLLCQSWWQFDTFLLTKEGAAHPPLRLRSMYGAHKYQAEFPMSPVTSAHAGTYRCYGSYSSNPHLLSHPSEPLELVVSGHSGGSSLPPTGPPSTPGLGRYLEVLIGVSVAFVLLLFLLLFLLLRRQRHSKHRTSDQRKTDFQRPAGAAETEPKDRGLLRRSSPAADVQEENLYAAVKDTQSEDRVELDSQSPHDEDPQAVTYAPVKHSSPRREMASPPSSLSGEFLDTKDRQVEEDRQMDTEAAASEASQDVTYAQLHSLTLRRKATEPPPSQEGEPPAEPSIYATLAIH

| EC50 (human LILRB1 on cells [1]) [µg/mL] | EC50 [2] [µg/mL] | EC50 [3] [µg/mL] | EC50 [4] [µg/mL] | MFI [5] [MFI] | binding result [5] | MFI [6] [MFI] | binding result [6] | MFI [7] [MFI] | binding result [7] | MFI [8] [MFI] | binding result [8] | MFI [9] [MFI] | binding result [9] | MFI [10] [MFI] | binding result [10] | MFI (human LILRB1 on cells [11]) [MFI] | MFI (human LILRB2 on cells [12]) [MFI] | MFI [13] [MFI] | binding result [13] | Binder | also measured |
| --- | --- | --- | --- | --- | --- | --- | --- | --- | --- | --- | --- | --- | --- | --- | --- | --- | --- | --- | --- | --- | --- |
| 0.0552 | 0.45 | 0.00593 | 0.0187 | 33.5 | no binding (tested: 1 µg/mL) | 28.6 | no binding (tested: 1 µg/mL) | 249 | no binding (tested: 1 µg/mL) | 78.3 | no binding (tested: 1 µg/mL) | 93.3 | no binding (tested: 1 µg/mL) | 104 | no binding (tested: 1 µg/mL) | 988 | 5760 | 140 | no binding (tested: 1 µg/mL) | B21H1-14 (antibody, human IgG1, kappa, humanized IgG1/kappa, VH1+VL4) heavy: not shown light: DVVMTQSPSTVSASVGDRVTLTCQASGNIYSFLAWYQQKPGQPPKLLIYTASNLETGVPDRFSGSGSGTDYTLTISSLQADDFATYYCLGGLYSSDVSYAFGQGTKVEIKRTVAAPSVFIFPPSDEQLKSGTASVVCLLNNFYPREAKVQWKVDNALQSGNSQESVTEQDSKDSTYSLSSTLTLSKADYEKHKVYACEVTHQGLSSPVTKSFNRGEC | MFI [14]: 151 MFI; binding result [14]: no binding (tested: 1 µg/mL); EC50 (human LILRB2 on cells [15]): 0.0011 µg/mL |
| 0.0507 | 0.25 | 0.00944 | 0.0369 | 33.5 | no binding (tested: 1 µg/mL) | 27.9 | no binding (tested: 1 µg/mL) | 332 | no binding (tested: 1 µg/mL) | 77.4 | no binding (tested: 1 µg/mL) | 94.8 | no binding (tested: 1 µg/mL) | 108 | no binding (tested: 1 µg/mL) | 1030 | 4120 | 144 | no binding (tested: 1 µg/mL) | B21H1-55 (antibody, human IgG1, kappa, humanized IgG1/kappa, VH5+VL5) heavy: not shown light: DIQMTQTPSTVEASVGGTVTITCQASGNIYSFLAWYQQKPGQPPKLLIYTASNLETGVPSRFSGSGSGTEYTLTISGLQSDDAATYYCLGGLYSSDVSYAFGGGTEVVVKRTVAAPSVFIFPPSDEQLKSGTASVVCLLNNFYPREAKVQWKVDNALQSGNSQESVTEQDSKDSTYSLSSTLTLSKADYEKHKVYACEVTHQGLSSPVTKSFNRGEC | MFI [14]: 148 MFI; binding result [14]: no binding (tested: 1 µg/mL); EC50 (human LILRB2 on cells [15]): 0.00071 µg/mL |
| 0.0515 | 1.51 | 0.00734 | 0.0248 | 26.5 | no binding (tested: 1 µg/mL) | 25.2 | no binding (tested: 1 µg/mL) | 220 | no binding (tested: 1 µg/mL) | 71.8 | no binding (tested: 1 µg/mL) | 85.5 | no binding (tested: 1 µg/mL) | 79.2 | no binding (tested: 1 µg/mL) | 1120 | 6370 | 114 | no binding (tested: 1 µg/mL) | B21H1-43 (antibody, human IgG1, kappa, humanized IgG1/kappa, VH4+VL3) heavy: not shown light: DIVMTQSPSSVSASVGDRVTITCQASGNIYSFLAWYQQKPGKAPKLLIYTASNLETGVPSRFSGSGSGTDFTLTISSLQPEDFATYYCLGGLYSSDVSYAFGGGTKVVIKRTVAAPSVFIFPPSDEQLKSGTASVVCLLNNFYPREAKVQWKVDNALQSGNSQESVTEQDSKDSTYSLSSTLTLSKADYEKHKVYACEVTHQGLSSPVTKSFNRGEC | MFI [14]: 141 MFI; binding result [14]: no binding (tested: 1 µg/mL); EC50 (human LILRB2 on cells [15]): 0.00135 µg/mL |
| 0.0518 | 0.272 | 0.00646 | 0.0219 | 28.8 | no binding (tested: 1 µg/mL) | 27.8 | no binding (tested: 1 µg/mL) | 249 | no binding (tested: 1 µg/mL) | 74 | no binding (tested: 1 µg/mL) | 87.9 | no binding (tested: 1 µg/mL) | 99.2 | no binding (tested: 1 µg/mL) | 1040 | 5460 | 126 | no binding (tested: 1 µg/mL) | B21H1-32 (antibody, human IgG1, kappa, humanized IgG1/kappa, VH3+VL2) heavy: not shown light: DIQMTQSPSSLSASVGDRVTITCQASGNIYSFLAWYQQKPGKVPKLLIYTASNLETGVPSRFSGSGSGTDYTLTISSLQSEDAATYYCLGGLYSSDVSYAFGGGTKVVIKRTVAAPSVFIFPPSDEQLKSGTASVVCLLNNFYPREAKVQWKVDNALQSGNSQESVTEQDSKDSTYSLSSTLTLSKADYEKHKVYACEVTHQGLSSPVTKSFNRGEC | MFI [14]: 142 MFI; binding result [14]: no binding (tested: 1 µg/mL); EC50 (human LILRB2 on cells [15]): 0.00123 µg/mL |
| 0.203 | 4.4 | 0.00734 | 0.0306 | 32.4 | no binding (tested: 1 µg/mL) | 27.8 | no binding (tested: 1 µg/mL) | 244 | no binding (tested: 1 µg/mL) | 76 | no binding (tested: 1 µg/mL) | 93.4 | no binding (tested: 1 µg/mL) | 102 | no binding (tested: 1 µg/mL) | 1000 | 5090 | 140 | no binding (tested: 1 µg/mL) | B21H1-11 (antibody, human IgG1, kappa, humanized IgG1/kappa, VH1+VL1) heavy: not shown light: DIQMTQSPSTLSASVGDRVTITCQASGNIYSFLAWYQQKPGKAPKLLIYTASNLETGVPSRFSGSGSGTEYTLTISSLQPDDFATYYCLGGLYSSDVSYAFGPGTKVEIKRTVAAPSVFIFPPSDEQLKSGTASVVCLLNNFYPREAKVQWKVDNALQSGNSQESVTEQDSKDSTYSLSSTLTLSKADYEKHKVYACEVTHQGLSSPVTKSFNRGEC | MFI [14]: 152 MFI; binding result [14]: no binding (tested: 1 µg/mL); EC50 (human LILRB2 on cells [15]): 0.00107 µg/mL |
